Source: the supplement of paper PMC9170038

Tested on: MS2 coat protein
Test: apparent KD of MS2 coat protein; designed switch direction (-1 OFF switch, 1 ON switch): -1; higher = weaker reporter binding
Procedure, shortened: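 Designed RNA switches sharing common flanks were transcribed on Illumina chips by stalled E. coli RNA polymerase. They were titrated with SNAP-549-labelled MS2 coat protein, from 0.7 or 1.5 nM doubling to 3 µM, in Tris-HCl pH 7.5 buffer with KCl, MgCl2, BSA, DTT, tRNA and Tween-20. Titrations ran without input, with 200 uM small-molecule ligand, or with an oligonucleotide input. The apparent KD of each design is the median over its clusters, after curve-fitting of normalised cluster fluorescence.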

[1] = Eterna round: R95, input ligand: microRNA oligo, concentration not stated
[2] = input ligand: microRNA oligo, concentration not stated
[3] = Eterna round: R95, input ligand: FMN 200 uM
[4] = Eterna round: R95, input ligand: none

Sequence: UUCUUACAUGAGGAUCACCCAUGUCAGGAUAUCUCCGCACUGCGCUUGCGCAGUGCAUAGAGAAGGGACAGGCU [JL ViennaUCT Aner mod 4] (puzzle: Exclusion 1)
- apparent KD of MS2 coat protein [1]: 45.7 nM

Sequence: ACUUAUUGAGGAUAUACAUUAAAUUACAUGAGGAUCACCCAUGUUCUUCAAUGUAUAUAUGUAGAAGGCAGAAGAA [JL-ex5-4.27 Malcolm mod] (Eterna round: R97, puzzle: Exclusion 5)
- apparent KD of MS2 coat protein (input ligand: FMN 200 uM): 14.9 nM
- apparent KD of MS2 coat protein (input ligand: none): 16.4 nM

Sequence: AUGCUCCGUGUAGGAUAUCGCCGUAUCACUCGGCGAGAAGGACAUGAGGAUCACCCAUGUAUGUUAUUAUCACGUGUGGCGCGC [Design 45] (Eterna round: R96, puzzle: Exclusion NG 1)
- apparent KD of MS2 coat protein (input ligand: FMN 200 uM): 55.2 nM
- apparent KD of MS2 coat protein [2]: 14.8 nM
- apparent KD of MS2 coat protein (input ligand: none): 18.3 nM

Sequence: UUUUACGGAGGAUAUACAUUUUUUUUAUUAUCCUCAUUAUUACAUGAGGAUCACCCAUGUAGAAGGCCGAUUUU [My Design] (puzzle: Exclusion 2)
- apparent KD of MS2 coat protein [1]: 59.1 nM

Sequence: AAGGACAGAGGAUAUACAUAGAUACAGAUUCAUGUAGAACUACAUGAGGAUCACCCAUGUAGAAGGCUGUCCUA [Fiskers Ex 2 - 2] (puzzle: Exclusion 2)
- apparent KD of MS2 coat protein [1]: 29.4 nM

Sequence: CUCCAUACAGGAUAUACAGGCGGUGGAGCCGUAUGAUCAACACAUGAGGAUCACCCAUGUAGAAGGGUGUGUAC [Eternabot (L2) Solution 25] (Eterna round: R97, puzzle: Exclusion 2)
- apparent KD of MS2 coat protein (input ligand: FMN 200 uM): 436 nM
- apparent KD of MS2 coat protein (input ligand: none): 642 nM

Sequence: CCGUGGCAAGGAUAUACAUAGGAGAGGAAGGCAAGAGGUGGACAUGAGGAUCACCCAUGUAGAAGGUGCAGAUC [JR_Exclu2_Sub027] (puzzle: Exclusion 2)
- apparent KD of MS2 coat protein [1]: 157 nM

Sequence: UAUUAUGCAAGCAGGUCCCACAUGAGGAUCACCCAUGUGCUCGUCUUAUAAGGUACUGUGACGAAAGUCACGGUACC [Elimod 15 - Jieux - Sensor, turn-off variant 1] (Eterna round: R97, puzzle: Sensor, turn-off variant 1)
- apparent KD of MS2 coat protein (input ligand: FMN 200 uM): 37.6 nM
- apparent KD of MS2 coat protein (input ligand: none): 37.9 nM

Sequence: GUGAAACAUGAGGAUCACCCAUGUGAGGAUAUGUUUUAGUACUGCUGACAGUACAUCUAUAGAAGGCACAAAGG [Mat - Mod of JL D69] (puzzle: Exclusion 1)
- apparent KD of MS2 coat protein [1]: 25.4 nM

Sequence: CGUGCGUAUGUGAGGAUAUGCUGGUCCUUGGAUCGGCAGAAGGCACAUGAGGAUCACCCAUGUGGUGUCGUUCA [salish99_Bmod_ex4_091] (puzzle: Brourd's mod of Exclusion 4)
- apparent KD of MS2 coat protein [3]: 31.3 nM
- apparent KD of MS2 coat protein [1]: 108 nM
- apparent KD of MS2 coat protein [4]: 173 nM

Sequence: AUUUUGUCAGGAUAUGAUUAGUAGGAUGAGAGUGCUACUACUUAGAAGGGACAUGAGGAUCACCCAUGUAUUCC [Bring Us a Shrubbery-07] (puzzle: Exclusion 4)
- apparent KD of MS2 coat protein [1]: 14.7 nM

Sequence: UUUAACAAGCCAGAUCCUCACAUGAGGAUCACCCAUGUGCUCGUCUGAUUUUGUACUAUCAUGUGAGUGAUAGUAUU [Level Boss var2-05] (Eterna round: R96, puzzle: Sensor v3, turn-off variant 1)
- apparent KD of MS2 coat protein (input ligand: FMN 200 uM): 360 nM
- apparent KD of MS2 coat protein [2]: 39.1 nM
- apparent KD of MS2 coat protein (input ligand: none): 300 nM

Sequence: CGGUGUAACAGAGGAUAUCAGCGCAACUGACGAUGAGAAGGCUGACAUGAGGAUCACCCAUGUGAUUUCUCAAUAUUAUACAUC [Prohibition 88 - Jieux - Exclusion NG 1] (Eterna round: R96, puzzle: Exclusion NG 1)
- apparent KD of MS2 coat protein (input ligand: FMN 200 uM): 371 nM
- apparent KD of MS2 coat protein [2]: 72.3 nM
- apparent KD of MS2 coat protein (input ligand: none): 100 nM

Sequence: UACAGUCAUCCUUGUUGUUACAUGAGGAUCACCCAUGUUAGUAUAGUUAAGUUAUGUGAGUUUGUUGUUCGUUUUAU [JR_STOV1_v2_Sub077] (Eterna round: R97, puzzle: Sensor, turn-off variant 1)
- apparent KD of MS2 coat protein (input ligand: FMN 200 uM): 149 nM
- apparent KD of MS2 coat protein (input ligand: none): 169 nM

Sequence: GUUGUUUAUGUAGGAUAUGCCUGGCGUGCCUUUGCAGAAGGACAUGAGGAUCACCCAUGUAUUGCGGUCUGCGUUCAGAUCGCG [salish99_ExNG1_r4_040] (Eterna round: R96, puzzle: Exclusion NG 1)
- apparent KD of MS2 coat protein (input ligand: FMN 200 uM): 58.3 nM
- apparent KD of MS2 coat protein [2]: 27.8 nM
- apparent KD of MS2 coat protein (input ligand: none): 30 nM

Sequence: GAUUAUGCGAGCUUUAGGGACAUGAGGAUCACCCAUGUUCGUCUUAUUAGUCUAGGUACGCUGACAUACCUAAAUCU [JMF 100] (puzzle: Sensor v3, turn-off variant 1)
- apparent KD of MS2 coat protein [3]: 21.8 nM
- apparent KD of MS2 coat protein [1]: 32.9 nM
- apparent KD of MS2 coat protein [4]: 21.6 nM

Sequence: AGUUGGCAAGGAUAUACAUGAGGAUCACCCAUGUGAAAUUAUAGUGAGGAAAUGAAAAGUAGAAGGUGCUGACA [Mod of Mat 3 - Jieux - Exclusion 3] (Eterna round: R97, puzzle: Exclusion 3)
- apparent KD of MS2 coat protein (input ligand: FMN 200 uM): 114 nM
- apparent KD of MS2 coat protein (input ligand: none): 30.9 nM

Sequence: UUCAGACAUGAGGAUCACCCAUGUGAGGAUAUGAUGCGAUCGUCGAAAGACGAUAGCAUCAGAAGGUACAAAUG [Fiskers Ex 1 - 19] (puzzle: Exclusion 1)
- apparent KD of MS2 coat protein [1]: 61 nM

Sequence: AGCUGUGGCCGAGGAUAUGACAUGAGGAUCACCCAUGUACAAGAUUAGGCCUGGUAACAGGCUCAUCAGAAGGCGGUCUCAGCA [Eli eng2 - 015] (Eterna round: R96, puzzle: Exclusion NG 2)
- apparent KD of MS2 coat protein (input ligand: FMN 200 uM): 10 nM
- apparent KD of MS2 coat protein [2]: 9.52 nM
- apparent KD of MS2 coat protein (input ligand: none): 13.9 nM

Sequence: ACGCGCAUAGGAUAUGCCGACGGAGAACUCCAGUGACUUCAACAUGAGGAUCACCCAUGUAGAAGGAUGAUGCA [Eternabot (Original) Solution 32] (Eterna round: R97, puzzle: Exclusion 2)
- apparent KD of MS2 coat protein (input ligand: FMN 200 uM): 16.8 nM
- apparent KD of MS2 coat protein (input ligand: none): 14.8 nM

Sequence: ACUGGUGCAGGAUAUACAUGAGGAUCACCCAUGUGAUCAGCAGUCCUCGGACUGCAAUGUAGAAGGGCACCAGU [E3/1-D1] (Eterna round: R97, puzzle: Exclusion 3)
- apparent KD of MS2 coat protein (input ligand: FMN 200 uM): 105 nM
- apparent KD of MS2 coat protein (input ligand: none): 804 nM

Sequence: CUCGUGUAAGGAUAUGCGAGCCGCGGAAAUACACCGCGGAGGUAGAAGGUACAUGAGGAUCACCCAUGUAAAAC [Edisora] (puzzle: Exclusion 4)
- apparent KD of MS2 coat protein [1]: 26.6 nM

Sequence: AAAUUGGUAGAGGAUAUCGUACAGGAAACACUGCGAGAAGGCUGCACAUGAGGAUCACCCAUGUUCAGUUGCGA [EX6 #39] (Eterna round: R97, puzzle: Exclusion 6)
- apparent KD of MS2 coat protein (input ligand: FMN 200 uM): 17.3 nM
- apparent KD of MS2 coat protein (input ligand: none): 14.5 nM

Sequence: GGUCUUCAAGUCAGGAUAUCGUCUAAUCGGUCUGGCGAGAAGGGACAUGAGGAUCACCCAUGUCGUCUCAUCAG [Ex4 #15] (Eterna round: R97, puzzle: Brourd's mod of Exclusion 4)
- apparent KD of MS2 coat protein (input ligand: FMN 200 uM): 27.1 nM
- apparent KD of MS2 coat protein (input ligand: none): 20.4 nM

Sequence: UGCCGUAGAGGAUAUACAUUGAAAUAGAUUCAUGUAAAACUACAUGAGGAUCACCCAUGUAGAAGGCUAUGGCU [JL-ex2-4.34 Eli mod] (Eterna round: R97, puzzle: Exclusion 2)
- apparent KD of MS2 coat protein (input ligand: FMN 200 uM): 68.4 nM
- apparent KD of MS2 coat protein (input ligand: none): 23 nM

Sequence: CCGAAAAUGCAGGAUAUCGUAUCGGAAACGAUACGAGAAGGGCAAACAUGAGGAUCACCCAUGUUCCUUAACGG [Mat - Exclusion 6 - Eli Mod - D76] (puzzle: Exclusion 6)
- apparent KD of MS2 coat protein [3]: 21.3 nM
- apparent KD of MS2 coat protein [1]: 19.4 nM
- apparent KD of MS2 coat protein [4]: 18.9 nM
